Measurements: US20230111102A1 (published 2023)

Molecular target: HEWL (lysozyme, derived from egg albumen, FUJIFILM Wako Pure Chemical Corporation) (UniProt P00698 19-147)
Assay: SPR (Biacore)

Sequence of HEWL (lysozyme, derived from egg albumen, FUJIFILM Wako Pure Chemical Corporation) (P00698 19-147): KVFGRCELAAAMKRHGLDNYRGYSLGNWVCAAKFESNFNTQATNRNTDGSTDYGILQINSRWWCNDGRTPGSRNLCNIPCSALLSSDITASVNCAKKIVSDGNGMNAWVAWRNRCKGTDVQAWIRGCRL

B1: 1ZVH (VHH, SEQ ID NO: 38) produced by Bacillus subtilis Dpr9ΔsigF (VHH)
VHH: QVQLVESGGGLVQPGGSLRLSCAASGFTFSNDAMTWVRQAPGKALEWVSSITLLGGGIPYYSDTVKGRFTISRDNTKNMLYLQMNSLKPEDTAVYYCAKGFKSDYPRGQGTQVTVSS
- Kd: 18 nM
